Measurements taken from US20210230273A1 (Alexion, published 2021).

T1: cell surface CD200 (human, UniProt P41217 31-278)
T1 construct: whole, on cells; also called CD200 on CD200 expressing Raji cells; CD200+ Raji cells
T1 sequence (looked up): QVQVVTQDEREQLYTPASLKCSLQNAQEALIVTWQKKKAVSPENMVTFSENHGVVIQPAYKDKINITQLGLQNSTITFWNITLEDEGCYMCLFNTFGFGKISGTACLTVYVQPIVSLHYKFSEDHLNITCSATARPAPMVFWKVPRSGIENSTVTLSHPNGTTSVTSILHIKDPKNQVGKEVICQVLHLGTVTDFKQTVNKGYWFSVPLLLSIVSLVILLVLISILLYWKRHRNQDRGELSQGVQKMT

B1: TPP-100 (Fab, V domains shown)
VH: EVQLQQSGPELVKPGASLKMSCKASGYSFTDYIILWVKQNHGKSLEWIGHIDPYYGSSNYNLKFKGKATLTVDKSSSTAYMQLNSLTSEDSAVYYCGRSKRDYFDYWGQGTTLTVSS
VL: DIQMTQSPSSMYASLGERVTITCKASQDINSYLSWFQQKPGKSPKTLIYRANRLVDGVPSRFSGSGSGQDYSLTISSLEYEDMGIYYCLQYDEFPYTFGGGTKLEIK
B2: TPP-101 (Fab, V domains shown)
VH: QVQLQQSGSELKKPGASVKISCKASGYSFTDYIILWVRQNPGKGLEWIGHIDPYYGSSNYNLKFKGRVTITADQSTTTAYMELSSLRSEDTAVYYCGRSKRDYFDYWGQGTTLTVSS
VL: DIQMTQSPSSLSASIGDRVTITCKASQDINSYLSWFQQKPGKAPKLLIYRANRLVDGVPSRFSGSGSGTDYTLTISSLQPEDFAVYYCLQYDEFPYTFGGGTKLEIK
B3: TPP-751 (Fab, V domains shown)
VH: QVQLVQSGAEVKKPGASVKVSCKASGYSFTDYIILWVRQAPGQRLEWMGHIDPYYGSSNYNLKFKGRVTITRDTSASTAYMELSSLRSEDTAVYYCGRSKRDYFDYWGQGTLVTVSS
VL: DIQMTQSPSSLSASVGDRVTITCKASQDINSYLSWFQQKPGKAPKSLIYRANRLVDGVPSRFSGSGSGTDFTLTISSLQPEDFATYYCLQYDEFPYTFGQGTKLEIK
B4: TPP-741 (Fab, V domains shown)
VH: QVQLVQSGAEVKKPGASVKVSCKASGYSFTDYIILWVRQAPGQRLEWIGHIDPYYGSSNYNLKFKGRVTITRDTSASTAYMELSSLRSEDTAVYYCARSKRDYFDYWGQGTLVTVSS
VL: DIQMTQSPSSLSASVGDRVTITCKASQDINSYLSWFQQKPGKAPKSLIYRANRLVDGVPSRFSGSGSGTDFTLTISSLQPEDFATYYCLQYDEFPYTFGQGTKLEIK
B5: TPP-709 (Fab, V domains shown)
VH: QVQLVQSGAEVKKPGASVKVSCKASGYSFTDYIILWVRQAPGQRLEWMGHIDPYYGSSNYNLKFKGRVTITRDTSASTAYMELSSLRSEDTAVYYCGRSKRDYFDYWGQGTLVTVSS
VL: DIQMTQSPSSLSASVGDRVTITCKASQDINSYLSWFQQKPGKAPKSLIYRANRLVDGVPSRFSGSGSGTDFTLTISSLQPEDFGTYYCLQYDEFPYTFGQGTKLEIK
B6: TPP-123 (Fab, V domains shown)
VH: QVQLVQSGAEVKKPGASVKVSCKASGYSFTDYIILWVRQATGQGLEWMGHIDPYYGSSNYNLKFKGRVTMTRNTSISTAYMELSSLRSEDTAVYYCARSKRDYFDYWGQGTLVTVSS
VL: DIQMTQSPSSLSASVGDRVTITCKASQDINSYLSWFQQKPGKAPKSLIYRANRLVDGVPSRFSGSGSGTDFTLTISSLQPEDFATYYCLQYDEFPYTFGQGTKLEIK
B7: TPP-139 (Fab, V domains shown)
VH: QVQLVQSGSELKKPGASVKVSCKASGYSFTDYIILWVRQAPGQGLEWMGHIDPYYGSSNYNLKFKGRFVFSLDTSVSTAYLQISSLKAEDTAVYYCARSKRDYFDYWGQGTLVTVSS
VL: DIQMTQSPSSLSASVGDRVTITCKASQDINSYLSWFQQKPGKAPKSLIYRANRLVDGVPSRFSGSGSGTDFTLTISSLQPEDFATYYCLQYDEFPYTFGQGTKLEIK
B8: TPP-135 (Fab, V domains shown)
VH: QMQLVQSGPEVKKPGTSVKVSCKASGYSFTDYIILWVRQARGQRLEWIGHIDPYYGSSNYNLKFKGRVTITRDMSTSTAYMELSSLRSEDTAVYYCAASKRDYFDYWGQGTLVTVSS
VL: DIQMTQSPSSLSASVGDRVTITCKASQDINSYLSWFQQKPGKAPKSLIYRANRLVDGVPSRFSGSGSGTDFTLTISSLQPEDFATYYCLQYDEFPYTFGQGTKLEIK
B9: TPP-107 (Fab, V domains shown)
VH: QVQLVQSGAEVKKPGSSVKVSCKASGYSFTDYIILWVRQAPGQGLEWMGHIDPYYGSSNYNLKFKGRVTITADESTSTAYMELSSLRSEDTAVYYCARSKRDYFDYWGQGTLVTVSS
VL: DIQMTQSPSSLSASVGDRVTITCKASQDINSYLSWFQQKPGKAPKSLIYRANRLVDGVPSRFSGSGSGTDFTLTISSLQPEDFATYYCLQYDEFPYTFGQGTKLEIK
B10: TPP-103 (Fab, V domains shown)
VH: QVQLVQSGAEVKKPGASVKVSCKASGYSFTDYIILWVRQAPGQGLEWMGHIDPYYGSSNYNLKFKGRVTMTRDTSTSTVYMELSSLRSEDTAVYYCARSKRDYFDYWGQGTLVTVSS
VL: DIQMTQSPSSLSASVGDRVTITCKASQDINSYLSWFQQKPGKAPKSLIYRANRLVDGVPSRFSGSGSGTDFTLTISSLQPEDFATYYCLQYDEFPYTFGQGTKLEIK
B11: TPP-115 (Fab, V domains shown)
VH: QVQLVQSGAEVKKPGASVKVSCKASGYSFTDYIILWVRQAPGQGLEWMGHIDPYYGSSNYNLKFKGRVTMTRDTSISTAYMELSRLRSDDTAVYYCARSKRDYFDYWGQGTLVTVSS
VL: DIQMTQSPSSLSASVGDRVTITCKASQDINSYLSWFQQKPGKAPKSLIYRANRLVDGVPSRFSGSGSGTDFTLTISSLQPEDFATYYCLQYDEFPYTFGQGTKLEIK
B12: TPP-111 (Fab, V domains shown)
VH: QVQLVQSGAEVKKPGASVKVSCKASGYSFTDYIILWVRQAPGQGLEWMGHIDPYYGSSNYNLKFKGRVTMTTDTSTSTAYMELRSLRSDDTAVYYCARSKRDYFDYWGQGTLVTVSS
VL: DIQMTQSPSSLSASVGDRVTITCKASQDINSYLSWFQQKPGKAPKSLIYRANRLVDGVPSRFSGSGSGTDFTLTISSLQPEDFATYYCLQYDEFPYTFGQGTKLEIK
B13: TPP-131 (Fab, V domains shown)
VH: QMQLVQSGAEVKKTGSSVKVSCKASGYSFTDYIILWVRQAPGQALEWMGHIDPYYGSSNYNLKFKGRVTITRDRSMSTAYMELSSLRSEDTAMYYCARSKRDYFDYWGQGTLVTVSS
VL: DIQMTQSPSSLSASVGDRVTITCKASQDINSYLSWFQQKPGKAPKSLIYRANRLVDGVPSRFSGSGSGTDFTLTISSLQPEDFATYYCLQYDEFPYTFGQGTKLEIK
B14: samalizumab (antibody, human IgG2, kappa, V domains shown)
VH: QVQLQQSGSELKKPGASVKISCKASGYSFTDYIILWVRQNPGKGLEWIGHIDPYYGSSNYNLKFKGRVTITADQSTTTAYMELSSLRSEDTAVYYCGRSKRDYFDYWGQGTTLTVSS
VL: DIQMTQSPSSLSASIGDRVTITCKASQDINSYLSWFQQKPGKAPKLLIYRANRLVDGVPSRFSGSGSGTDYTLTISSLQPEDFAVYYCLQYDEFPYTFGGGTKLEIKR
notes: Humanized anti-human CD200 mAb with G2/G4 constant region; also called ALXN6000; TPP-309

The binders below were run against recombinant human CD200 Fc Chimera (human) (UniProt P41217) (assay: SPR (Biacore), CD200 captured by anti-Fc (human) on CM5, Fab injected).
With B1 the Kd was 0.442 nM, the koff was 0.000747 s⁻¹ and the kon was 1.69e+06 M⁻¹ s⁻¹. B2 was tested, and the Kd was 6.01 nM, the koff was 0.0175 s⁻¹ and the kon was 2.91e+06 M⁻¹ s⁻¹. Binder B3 has a Kd of 0.104 nM, a fold better affinity than mouse parental c2aB7 (TPP-100 Fab) of 3 fold and a fold better affinity than samalizumab (TPP-101 Fab) of 45 fold. The koff was 0.00022 s⁻¹ and the kon was 2.11e+06 M⁻¹ s⁻¹. For B4, the Kd was 0.407 nM, the koff was 0.000707 s⁻¹ and the kon was 1.74e+06 M⁻¹ s⁻¹. B5 was tested, and the Kd was 0.132 nM, the fold better affinity than mouse parental c2aB7 (TPP-100 Fab) was 3 fold and the fold better affinity than samalizumab (TPP-101 Fab) was 45 fold. For the same binder, the koff was 0.00024 s⁻¹ and the kon was 1.82e+06 M⁻¹ s⁻¹.

What follows are binders tested against recombinant human CD200 Fc Chimera (human) (UniProt P41217) (assay: SPR (Biacore 3000), CD200-Fc captured by anti-human Fc on CM5, Fab injected, 1:1 Langmuir).
B1 gave a Kd of 0.488 nM, a koff of 0.000739 s⁻¹ and a kon of 1.51e+06 M⁻¹ s⁻¹. Work on B2 yielded a Kd of 5.53 nM, a koff of 0.0148 s⁻¹ and a kon of 2.67e+06 M⁻¹ s⁻¹. With B6 the Kd was 4.36 nM, the koff was 0.00487 s⁻¹ and the kon was 1.12e+06 M⁻¹ s⁻¹. In the case of B7, the Kd is reported as 3.71 nM, the koff is reported as 0.00368 s⁻¹ and the kon is reported as 993000 M⁻¹ s⁻¹. With B8 the Kd was 15.7 nM, the koff was 0.0146 s⁻¹ and the kon was 930000 M⁻¹ s⁻¹. With B9 the Kd was 4.64 nM, the koff was 0.0041 s⁻¹ and the kon was 885000 M⁻¹ s⁻¹. Work on B10 yielded a Kd of 10.1 nM, a koff of 0.00704 s⁻¹ and a kon of 694000 M⁻¹ s⁻¹. B11 was tested, and the Kd was 4.04 nM, the koff was 0.0053 s⁻¹ and the kon was 1.31e+06 M⁻¹ s⁻¹. With B12 the Kd was 5.08 nM, the koff was 0.00625 s⁻¹ and the kon was 1.23e+06 M⁻¹ s⁻¹. B13 gave a Kd of 0.887 nM, a koff of 0.00235 s⁻¹ and a kon of 2.65e+06 M⁻¹ s⁻¹.

The binders below were run against T1, cell surface CD200 (assay: flow cytometry, inhibition of labelled CD200R-Fc binding to CD200+ Raji cells; mean ± SD).
Source text: Next, the abilities of the newly-engineered anti-CD200 antibodies to antagonize CD200R were compared with that of samalizumab using CD200+ Raji cells. […] Binding of labeled CD200R-Fc was detected by flow cytometry.
B14 was tested, and the EC50 was 0.46 nM.
